In a protein production outcome set (Wang et al. 2014) one finds protein production data, which are given here for 20 sequences.
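Further: failed if final PepcDB status was selected cloned or expressed and not failed if soluble or beyond.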

The series in a line: label from the status in PepcDB records.
“MEEPLRQESPTTFHAKTSDRGQIDLGISKHKTVAEAWEGYRQRRHRSTHLQAIETALLQQRNDRTEDEDIVLWKGKNDVYKPQFLTKETLNHMRTISMDVDWYKGVWFGHSTPKYSFCVWLAVLNRLSTGDRMTHWNGGQSAACVLCHNAPETRDHLFFSCDFASIVWSNLARGIYGDRFSTHWQDLIQAISGSWMTPLDSFFARYLFQATVHTIWRERNGRNHGEKPNSAALLIK”: the protein production result is “failed”. Then “LPAHSWLGSFQAAGFDLVGQAWLPEQPSATLFLLHGYYDHMGLYRHVIEWALKQGFAVISCDLPGHGLSSGERASITDFAVYQQVLEALFEQAHTLQLPHPWHLCGQSTGGAIAVDHLLHQGARSPVDGQVILLAPLVRPSSWRWSKFSYCVLRHFVNGIERRFSENTNDPAFLPFLEADPLQPRRLPTAWVGALIAWVKRIEAAPRSARRPLIVQGEADGTVDWPHNLEVLKAKFAEPQILMLPEARHHLANELPGIRQRYFDFIDQRLG”, with “failed”; and “MSLNRHFTVSVFIVCKDKVLLHLHKKAKKMLPLGGHIEVNELPEEACIREAKEEAGLNVTLYNPIDINLKKSCDLSGEKLLINPIHTILGDVSPNHSHIDFVYYATTTSFETSPEIGESKILKWYSKEDLKNAHNIQENILVMATEALDLLEGHHHHHH”, with “not failed”. Then “MPIGFLRSLTARHRNPVSNRRLARVLCFVAGAANAGGFLAVQQYTSHMSGIVSAIADDLVLQRYGLVVHGIGALASFLAGAGTTAILVNWARRARLRSEYAIPLLVEATLLLCFGLLGSHLNDMDWLFVPATVMLLCFMMGLQNALITKLSNAEIRTTHVTGMVTDIGIELGKLFYWNAAVRPNSRPVMADRHKLRLLTVLVGMFLVGGIVGAQAFSTLGYAATLPLAALLLIVAIIPVADDLLTRLLLRVHRADSARRARRWGARGR”, with “failed”; and “MYKLDLPTLMDAFHKVFHVSMLRKCITHQENVISEPPPDLLENMMIVGMLIPNLLGVSSEMVGR”, with “failed”. For the sequence “MHFRLSFISIIYRLLGILLASAFVGWLFDYVLLVMLATSIFLLVWHYHHLFKLINWIWQSKALSPPQAKGVWGYLYDGLYRQVKQQRNKQKQLNEKIRRFRDGAEALPDAALMLSEELTIEWGNKKAQRLLGVRWPDDFGQRIDNLLRAPEFSDYLAHENFEYPCLLVSPIHSDVQLEIRLMAYGSEHVLLLARDISNLQRLEDMRRDFVANVSHELKTPLTVVRGYVEMIQASPEAFDPHWQKAFQTIEGQVSRMDRLVEQLLNLAKVENNSDDEKQCVNMAQLIRTLVDEVTWLNQEKQHQIMLDISTDVSVLGFETELKSACANLLSNAIAYTPPKGCIEVSWRLMGNKAIFSVKDNGDGIKPEHVNRLTERFYRIDRSRSRDTGGSGLGLAIVKHVLHHHQAELIINSHWGQGSEFSIYFDPSTLSNPSR”, the protein production result is listed as “failed”.

Take “MERDTVLTATPTIDADLADATSCATPSRTAVSPLLPVLAALAAVVLWGGAFPAMKVAVQTLGTWQMMWARMVFALLLLVPLARRLAPARIERRDLPLLAGMALMQPCLYFLCESTALQLTTSSQAGVMAASMPLMMAVGGFLLGEKVSPRLWFGVGVSCIGVAWLTSSGGEGGGSAPDPFTGNLLELAAMACATGSSLCIGALISRGKGRWNALTLTGIQTLAGAVFFLPGAPGVIGGVADWSTEVLLAVVYLGGASSLGAFGLYNWALGHMPASRAGNFINLVPVAAIFFGWLLLGETLTTTQYLATGLVMGGVLMGTRAR”: the protein production result was “failed”. Then “MPSSGQLYGDEERELTPTPAIPEEGVYEVKYSNRRTNVVRLLPNGFQERKLRRLANLSAKLFNEVNFERRQQFFHEGKVNIEETYKKYYEKYKVILGVNAQAVLNKNNEAWSSFFSLLKLKKEGKLPPHMNHVSPPGYWKDREAGKRKQILVIRQDRYKVDAENHKLILKDFDMEIDFIGRLKWYGKQGRLEIIFDETRNAWYAHIPIEVGVEETKAGKKSKHVVKGERKSIQISKPKGNKVASIDLGINVIASVVVNDGTWLLYKGVRTKEDYFYFQKRIAEVQSLADRTRNIGEYDAYLELLREKRRLFKKLTRRLTHLYRNLASHLIETLYELGVSTIYLGYPFNIVQEKGNKFTVNMWSYRKLMESIELKAQEYGMKVFEVVEYNTSKYCAYHDVEVKRNPRGVINCPLGHKLHSDLNGALNILKKALGVIVNAVKKPLSFIVDHNRVAPIKGCNPLEHHHHHH”, with “failed”. With “MPFVAVATCLSPLIICYPQNRTMECDLLMIKIEKVINKNDLKAFIAFPSSLYPDDPNWIPPLFIERNEHLSAKNPGTDHIIWQAWVAKKAGQIVGRITAQIDTLHRERYGKDTGHFGMIDAIDDPQVFAALFGAAEAWLKSQGASKISGPFSLNINQESGLLIEGFDTPPCAMMPHGKPWYAAHIEQLGYHKGIDLLAWWMQRTDLTFSPALKKLMDQVRKKVTIRCINRQRFAEEMQILREIFNSGWQHNWGFVPFTEHEFATMGDQLKYLVPDDMIYIAEIDSAPCAFIVGLPNINEAIADLNGSLFPFGWAKLLWRLKVSGVRTARVPLMGVRDEYQFSRIGPVIALLLIEALRDPFARRKIDALEMSWILETNTGMNNMLERIGAEPYKRYRLYEKQI” the entry was “failed”; with “MEEGVNMDIRPTRIELIRTRRRIRLAKKGLDLLKMKRSALIYEFLQISRTIRGMKENLRKEVVEALNIIKVASVLEGSLALERIANMSSDSRINVNSRNVMGVNIPTLEVSYNLSILSDVYRTVSVPVAIDDSIRRFQKLFYDLILIVEKENSLRNLLMEIDRTKRRSNAIENILIPRLEYQAKMIKMTLDERERDTFTTLKTIKKKIEAENDLEHHHHHH”, “failed”. In the case of “MASQQEKKQLDERAKKGETVVPGGTGGKSFEAQQHLAEGRSRGGQTRKEQLGTEGYQQMGRKGGLSTGDKPGGEHAEEEGVEIDESKFRTKT”, the protein production result is “failed”. For the sequence “MSKKTDVVKEYTRIDSKRGLSITTGANRMKLFDRRVLELGRGEYGKLWNVIILGLLISFSYIVQGLLIAVILNGVFAGTPLHESRLYFAAVALLIVLRWIMIRENDRIAARTASNIAMSLRRRMYHKLYELGPGWIMTQKSGVIQATLVDGAEALQNYYGRFLPQVVVSIAAGISIVAILFYVDMTIGLVIGGMMIAALIQPLAIYKGVGKGIRIWFVAMPRLFAEYVDNIQGIVTLKSFNASQRQGKILYQRTNDLYDAEIGILRDEILWSVPPGLVAAICGTVAIIIGAIRMDAGALSAAGLLFVLLLVREALRPVTDLRQTIHFSFSGMGAAEGVLDILEATPLAAVTARPTPSSIPHSFAFEDVTFRYRKTDASAVENLSFKVEPGDKVALVGRSGSGKTTVTSLLMRYFDPQAGIIRLGGEDIRHIPADELHAMYSIVSQDTFLFHGTVRDNLLMAKPEASQEELERAARAAAAHKFIATLPDSYDTLIGERGVRLSGGERQRIAIARAILKDAPILILDEATSSVDVANETLIREAIAGLAHDRTTLLISHRLSAVRDADRIYVLEKGRLMEAGTHSKLVGCNGNYSALVRAEEECI”, the protein production entry is recorded as “failed”.

“MTRFNRFRRTLMQWTGSLPLLGALPLSKLAQAQGAEQPAASGTPPAGGTRAPRFAYVGTYTFDAPGGTAGGPPARGIYVLAPRGDAWSQAQVVESANPSFLAVHPNQRCLYAINEIDVYEGRATGTAEAYAIDPRDGRLTLLNRQPLSLSGTIPAHVAVSPDGQHLAVALYGGGAYNVLPIGADGRLGSVSGLFKDTGSGPDTARQEAPHAHMVLFDPTGRHILGTDLGTDRINVFALEDGKLTPRDRAQLKPGGGPRHLALHPSGKLLYVISELDSTVACHGYDPATGRVLDERQRIATTPADYTGQKSGAALVMHPSGRFLYASNRRLKSEHPLADSIAAFSIDPASGRLAALQYWSEGLRFPRALTMADDGRHLYALSQKGDTILRLRIDDATGRLDQPAVVSNVPTPVCLVFAG”: the protein production result was “failed”. With “MVKGKVINLHPTSSRFFKIGIKHYERGEIELAIERLKRALELDSKNIEIKFNLAGLLAQIGDFESSNKLLTELTTDNPEFYDSLFGLGCNFFEMGKLREAKHFLRRYLKLSNNTEFKEAAEDLLDFIETQQEFEREQKEMEKLTKLLERGNFLLENGRYEDAVKYFKMILAKDDTIFAARNNLSLAYFYMGEIEKAIHEAKKVLEIDKYNVYANCNLAFFYSTIGKTKELKKQLKTILELKTYDHKDKIKVLDTLIKLNQHAAIVDRAGELFEITKEPYFRHIQAISLYNTKQYIKAKKIWKDLKKNYNMPEIKIDYFLKKIDDVMKTFKKDTIDYFETGFGNLSKLEEKEFRSQLQKHIDMYFSQTFEENAKRIMDIIAENVKLNNEDKDAISQLLNALPLEKQRLNFTAIAAIVYYVYKKYLLRQKVKQKDVAERFGISQAVFSKWFKEFKGLLLGEDV” the entry was “failed”; with “MLKGKYTKIEKVNGVEREYLITDKYGITIGRIFIVDLNKDNRFCMFRMKIYKQGKSINTYIKEILSVFMEFLFKSNDINKVNIIVDEEVSTQPFVELGFAFEGIINKSIIEKNVLKDEFLFGMDYKNYNSDRINVFKLYGKSITLKVLTPEDAENMLQYYIKNKEHLKPFEPEREESFYTFEAQKQMLIENYKQFINGEGTNFGIYKDAKLIGKIQISGTIYGVFKSAIIGYSIDKDYQGKGYMKDALRVAEAYAFNVMNLHRIEASALVDNLRSQNVLIGCGFEKLGINKNYLFINGRWQDHITFYKTNNN”, “failed”.

As for “MASHLFTRSRISLLKTLKPNPFTSASPIRAISGTPFLSQDPLLATESTDHDPSNHQSTSTPLPPNPATGSPLYQENWRSPIPNTPSFNQSLVPLGFLNQAPAPRIRALSETLDMNSLLNMFADWTASQRWSDMKQLFEVWVRSLDKNGKPNKPDVNLYNHYLRANLMMGASAGDMLDLVAPMEEFSVEPNTASYNLVLKAMYQARETEAAMKLLERMLLLGKDSLPDDESYDLVIGMHFGVGKNDEAMKVMDTALKSGYMLSTSVFTECVRSCVAKGRTDTLVSIIERCKAVDRNKSLCPSWILCNYIAEVAIQEDNSKLAFYAFEFMFKWITRGEMARPSVIFSVDEGLVVAGLASAARTCSSSLVEGSWTILKQSLRGRKAANPASYIAKINAYASLGNLQKAFTSLHELESAYADSEKEVVEEMLSPFTSLYPLVVACSKKGFETLDEVYFQLESLSQGDTPYKSVAALNCIILGCANTWDLDRAYQTFEAISASFGLTPNIDSYNALLYAFGKVKKTFEATNVFEHLVSIGVKPDSRTYSLLVDAHLINRDPKSALTVVDDMIKAGFEPSRETLKKLRRRCVREMDDENDDQVEALAKKFQIRMGSENRRNMLFNIDYSRGRALNN”, the protein production entry is “failed”. “MKIIGFACQWCAYQAADLAGSLKMKYPESIRLLRVPCSGRVNAEFILKALLSGADGVFVAGCPISECHYRSGNRIAKTKVALLKRLLPEFGLESGRVEFLQVSSADARKFVEFAKEFDERIRKLG”: the protein production entry is reported as “failed”. As for “MPLPSSARALKKPRLDDEVRFLRSWIEKPLHMGAVMPSGKLLARTMAHYVDVNSDAPVVELGPGTGAITSALVERGVDQKRLVLVEYNPGFCALLRDRYPQAKVVQGDAYRLRDTLWNVLSAPASAVVSGLPLVTKPMLTRLRLIRDAFTALAPGAPFVQFTYAVVPPIPKSLPGVSTEASERIWMNLPPARVWVYRKD”, the protein production entry was “failed”.

Turning to “MSLAADKVDILYLEDDEVDIQSVERVFHKISSLIKIEIAKSGNQALDMLYGRNKENKIHPKLILLDINIPKMNGIEFLKELRDDSSFTDIEVFVLTAAYTSKDKLAFESLNIRGHLIKPLDYGEAIKLFWILQSMEGHHHHHH”, the protein production result is given as “not failed”. Turning to “MTQQPRSTARTPASAEDPAAAAAHPPLAAPRPPAEHRVWPRTFHDRLTAPLPGLKAFARFAREGAVRPGPAGLADVPRLPCAPGPLPRVDARTVAVTWAGHASWVVRIGGLTVLTDPVWSRRILGTPPRVTPVGVPWSALPRVDAVVISHNHYDHLDAPTLRRLPRDTPVLVPAGLGRWFHRRRFTHVTELDWWEATELNGVRFDFVPAHHWSKRSLTDTCRTLWGGWVLTDPDGRRVYFAGDTGYGHWFTRIGRRYPGIDLALLPIGAYDPRWWLSDVHCDPEEAVRAAQDVGARRMAPMHWGTFVLSAEPVLEPLARVRAAWQQAGLPRERLWDLPIGASRVLE”, the protein production entry is on record as “failed”.
